{"source": "patent US10029000B2", "about": "“Uses of IL-12 in hematopoiesis” (University of Southern California, priority 2003, dated 2018)", "molecules": {"B1": {"name": "IL-12: Recombinant murine interleukin 12, heterodimeric cytokine (p35+p40), purchased from R&D Systems or PeproTech (protein, UniProt P43431 23-215; P43432 23-335, looked up)", "Interleukin-12 subunit alpha": "RVIPVSGPARCLSQSRNLLKTTDDMVKTAREKLKHYSCTAEDIDHEDITRDQTSTLKTCLPLELHKNESCLATRETSSTTRGSCLPPQKTSLMMTLCLGSIYEDLKMYQTEFQAINAALQNHNHQQIILDKGMLVAIDELMQSLNHNGETLRQKPPVGEADPYRVKMKLCILLHAFSTRVVTINRVMGYLSSA", "Interleukin-12 subunit beta": "MWELEKDVYVVEVDWTPDAPGETVNLTCDTPEEDDITWTSDQRHGVIGSGKTLTITVKEFLDAGQYTCHKGGETLSHSHLLLHKKENGIWSTEILKNFKNKTFLKCEAPNYSGRFTCSWLVQRNMDLKFNIKSSSSSPDSRAVTCGMASLSAEKVTLDQRDYEKYSVSCQEDVTCPTAEETLPIELALEARQQNKYENYSTSFFIRDIIKPDPPKNLQMKPLKNSQVEVSWEYPDSWSTPHSYFSLKFFVRIQRKKEKMKETEEGCNQKGAFLVEKTSTEVQCKGGNVCVQAQDRYYNSSCSKWACVPCRVRS"}}, "test_system": "lethally irradiated mice", "experiment": "Radioprotection assay: survival of mice after total body lethal irradiation", "type": "in vivo, mice (C57BL/6J)", "conditions": "for animals with long-term survival (more than one year): 100 ng/mouse (5 ug/Kg)", "method": "Mice received recombinant murine IL-12 (100 ng/mouse (which is about 5 ug/kg on average), intravenous injection) before (24 hours) or after (1 hour) lethal dose radiation (1000 rad). Mice in control group received equal volume of PBS buffer. Survival rate were analyzed by Kaplan-Meier method and p value was calculated using Log Rank Test.\nTo determine the minimum effective radioprotective dose of IL-12, different dose of IL-112 were administered to lethally irradiated animals before (24 hours before) or post (within one hour) lethal dose ionizing radiation.\nIL-12 was administrated to mice at different doses 24 hours before radiation to determine if there is a dose dependent relationship between the concentration of IL-12 administration and survival from lethal irradiation.\nTo further explore the relationship of IL-12 hematopoietic rescue effect as it may relate to the time of administration, IL-12 was administrated to lethally irradiated animals at different time before and after the radiation. The following time points were tested: −48, −36, −24, and −12 hours before radiation, or +1, +12, +24, and +36 hours post radiation.\nA study was conducted to determine if the radioprotective effect of IL-12 administration is specific and INF- ? independent. […] Also, an assessment was made to determine if there was a synergistic effect between GM-CSF and IL-12.\nMice were provided with acid water for one week before the radioprotection assay. Cytokines, diluted in phosphate buffered saline (PBS), pH 7.4, were intravenously injected into mice before or after total body lethal irradiation (TBI) at the specified times. Control group mice were injected with PBS buffer. For TBI, mice were either exposed twice to ionizing irradiation ( ? -ray from Cesium 137) at 500 rad dose with a 3 hour interval, or one time at a dose of 1000 rad in a Gammacell 40 machine from Atomic Energy of Canada LTD (Kanafa, Ontario, Canada). The ? -ray exposure rate is 1 Gy/min. […] After irradiation, mice were given water containing antibiotics. For the survival curve, the Kaplan-Meier method was used. Each experiment was repeated three or more times.", "key": {"[1]": {"conditions": "cytokine given 1 hour post lethal dose radiation"}}, "note": "Entries after “also recorded” stand apart in the source; their conditions may differ."}
{"molecule": "B1", "values": [{"measurement": "animals with long-term survival (more than one year)", "setting": "24 hours before lethal radiation", "value": 95, "unit": "%"}, {"measurement": "animals with long-term survival (more than one year)", "setting": "post lethal radiation", "value": 75, "unit": "%"}, {"measurement": "survival difference versus control (Kaplan-Meier, Log Rank Test)", "setting": "100 ng/mouse i.v., 24 hours before or 1 hour after 1000 rad, p<0.001", "value": "statistically significant; also recorded: significant better survival"}, {"measurement": "Survives (30 days)", "setting": "IL-12 dose 5 ng/mouse, 24 hours before radiation, 5 mice", "value": 0}, {"measurement": "Survival rate (%)", "setting": "IL-12 dose 5 ng/mouse, 24 hours before radiation, 30 days", "value": 0, "unit": "%"}, {"measurement": "Survives (30 days)", "setting": "IL-12 dose 10 ng/mouse, 24 hours before radiation, 5 mice", "value": 0}, {"measurement": "Survival rate (%)", "setting": "IL-12 dose 10 ng/mouse, 24 hours before radiation, 30 days", "value": 0, "unit": "%"}, {"measurement": "Survives (30 days)", "setting": "IL-12 dose 25 ng/mouse, 24 hours before radiation, 5 mice", "value": 2}, {"measurement": "Survival rate (%)", "setting": "IL-12 dose 25 ng/mouse, 24 hours before radiation, 30 days", "value": 40, "unit": "%"}, {"measurement": "Survives (30 days)", "setting": "IL-12 dose 50 ng/mouse, 24 hours before radiation, 5 mice", "value": 3}, {"measurement": "Survival rate (%)", "setting": "IL-12 dose 50 ng/mouse, 24 hours before radiation, 30 days", "value": 60, "unit": "%"}, {"measurement": "Survives (30 days)", "setting": "IL-12 dose 100 ng/mouse, 24 hours before radiation, 5 mice", "value": 4}, {"measurement": "Survival rate (%)", "setting": "IL-12 dose 100 ng/mouse, 24 hours before radiation, 30 days", "value": 80, "unit": "%"}, {"measurement": "Survives (30 days)", "setting": "IL-12 dose 200 ng/mouse, 24 hours before radiation, 5 mice", "value": 3}, {"measurement": "Survival rate (%)", "setting": "IL-12 dose 200 ng/mouse, 24 hours before radiation, 30 days", "value": 60, "unit": "%"}, {"measurement": "Survival rate (%)", "setting": "[1]", "value": 80, "unit": "%"}, {"measurement": "radioprotective effect", "setting": "[1]", "value": "only cytokine tested that can protect mice from lethal dose radiation"}, {"measurement": "Survives", "setting": "cytokine given 1 hour post lethal dose radiation, 4-5 mice per group", "value": 4}, {"measurement": "survival at higher dose", "setting": "higher dose (up to 50 ug/kg) compared with 5 ug/kg", "value": "did not yield greater survival"}, {"measurement": "Survival rate (%)", "setting": "injection 1 hr after lethal irradiation", "value": 80, "unit": "%"}, {"measurement": "Survives", "setting": "injection 1 hr after lethal irradiation, 5 mice", "value": 4}, {"measurement": "Survival rate (%)", "setting": "injection 12 hrs after lethal irradiation", "value": 0, "unit": "%"}, {"measurement": "Survives", "setting": "injection 12 hrs after lethal irradiation, 5 mice", "value": 0}, {"measurement": "Survival rate (%)", "setting": "injection 12 hrs before lethal irradiation", "value": 20, "unit": "%"}, {"measurement": "Survives", "setting": "injection 12 hrs before lethal irradiation, 10 mice", "value": 2}, {"measurement": "Survival rate (%)", "setting": "injection 24 hrs after lethal irradiation", "value": 20, "unit": "%"}, {"measurement": "Survives", "setting": "injection 24 hrs after lethal irradiation, 10 mice", "value": 2}, {"measurement": "Survival rate (%)", "setting": "injection 24 hrs before lethal irradiation", "value": 100, "unit": "%"}, {"measurement": "Survives", "setting": "injection 24 hrs before lethal irradiation, 10 mice", "value": 10}, {"measurement": "Survival rate (%)", "setting": "injection 36 hrs after lethal irradiation", "value": 0, "unit": "%"}, {"measurement": "Survives", "setting": "injection 36 hrs after lethal irradiation, 5 mice", "value": 0}, {"measurement": "Survival rate (%)", "setting": "injection 36 hrs before lethal irradiation", "value": 0, "unit": "%"}, {"measurement": "Survives", "setting": "injection 36 hrs before lethal irradiation, 10 mice", "value": 0}, {"measurement": "Survival rate (%)", "setting": "injection 48 hrs before lethal irradiation", "value": 0, "unit": "%"}, {"measurement": "Survives", "setting": "injection 48 hrs before lethal irradiation, 10 mice", "value": 0}, {"measurement": "best administration time for radioprotection", "setting": "lethal dose radiation", "value": "24 hours before or 1 hour post radiation"}, {"measurement": "optimal radioprotective dose (best survival rate)", "setting": "mice, lethal dose radiation", "value": 5, "unit": "µg/kg"}]}
